{"source": "paper PMC4824898", "about": "“Characterisation of Schizosaccharomyces pombe α-actinin” (PeerJ, 2016)", "proteins": {"B1": {"name": "rod domain (ROD) of S. pombe α-actinin (domain or fragment, Schizosaccharomyces pombe, UniProt O13728 228-483, looked up)", "chain": "AFSTLDKVETAARRVERFTEVLMSTHDMKIDYESRMKRLLGSIARMQEYWHTVQFENNYTDVKSHSNNFAKFKATEKREWVKEKIDLESLLGTIQTNLKTYQLRKYEPPAGLKIVDLERQWKDFLSEEANQSKLINTHMREIKESMRIAFADRANSFSKMLSTISNEITNLQGDWRDQLDHVEFLQEHLGPLEVELASVKVLYDNCFQAGIEENDYTMFSYEDLEHEFGITANIIANKIKYLENELLEREKRTLSK", "notes": "alpha-actinin of Schizosaccharomyces pombe, rod domain with two putative spectrin repeats, nucleotides 682-1449, residues 228-483; 258 residues in all; also called pTEV-SP-ROD; source: E. coli BL21(DE3), purified (nickel chelating column, TEV cleavage, ion exchange when necessary); not shown: 10xHis, N-terminal, cleaved"}, "B2": {"name": "ABD-ROD of S. pombe α-actinin (domain or fragment, Schizosaccharomyces pombe, UniProt O13728 1-483, looked up)", "chain": "MQANQWQSVQNRTFTKWFNTKLSSRDLPSVFDLRKDLSDGILLIQLLEIIGDENLGRYNRNPRMRVHRLENVNKALEYIKSKGMPLTNIGPADIVDGNLKLILGLIWTLILRFTIADINEEGLTAKEGLLLWCQRKTANYHPEVDVQDFTRSWTNGLAFCALIHQHRPDLLDYNKLDKKNHRANMQLAFDIAQKSIGIPRLIEVEDVCDVDRPDERSIMTYVAEYFHAFSTLDKVETAARRVERFTEVLMSTHDMKIDYESRMKRLLGSIARMQEYWHTVQFENNYTDVKSHSNNFAKFKATEKREWVKEKIDLESLLGTIQTNLKTYQLRKYEPPAGLKIVDLERQWKDFLSEEANQSKLINTHMREIKESMRIAFADRANSFSKMLSTISNEITNLQGDWRDQLDHVEFLQEHLGPLEVELASVKVLYDNCFQAGIEENDYTMFSYEDLEHEFGITANIIANKIKYLENELLEREKRTLSK", "notes": "485 residues in all; also called pTEV-SP-ABD-ROD; source: E. coli BL21(DE3), purified (nickel chelating column, TEV cleavage, ion exchange when necessary); not shown: 10xHis, N-terminal, cleaved"}, "B3": {"name": "full-length S. pombe α-actinin (natural protein, Schizosaccharomyces pombe, UniProt O13728 1-621, looked up)", "chain": "MQANQWQSVQNRTFTKWFNTKLSSRDLPSVFDLRKDLSDGILLIQLLEIIGDENLGRYNRNPRMRVHRLENVNKALEYIKSKGMPLTNIGPADIVDGNLKLILGLIWTLILRFTIADINEEGLTAKEGLLLWCQRKTANYHPEVDVQDFTRSWTNGLAFCALIHQHRPDLLDYNKLDKKNHRANMQLAFDIAQKSIGIPRLIEVEDVCDVDRPDERSIMTYVAEYFHAFSTLDKVETAARRVERFTEVLMSTHDMKIDYESRMKRLLGSIARMQEYWHTVQFENNYTDVKSHSNNFAKFKATEKREWVKEKIDLESLLGTIQTNLKTYQLRKYEPPAGLKIVDLERQWKDFLSEEANQSKLINTHMREIKESMRIAFADRANSFSKMLSTISNEITNLQGDWRDQLDHVEFLQEHLGPLEVELASVKVLYDNCFQAGIEENDYTMFSYEDLEHEFGITANIIANKIKYLENELLEREKRTLSKQELDGITKVFRHFEKKKSNMLNEVEFYAALASLGLVYDTEEGTALFHRAANSEEGVTYERFTEIVMEELEDRDSARQVLYAFCDVADGKSYVTSDDLLRSQVRPNIVKFLECNMNKHSEGLDYLTWIKQLLAEDKEIV", "notes": "also called full length α-actinin; pTEV-SP; source: E. coli BL21(DE3), purified (nickel chelating column, TEV cleavage, ion exchange when necessary); not shown: 10xHis, N-terminal, cleaved"}, "B4": {"name": "ROD-EF of S. pombe α-actinin (domain or fragment, Schizosaccharomyces pombe, UniProt O13728 228-621, looked up)", "chain": "AFSTLDKVETAARRVERFTEVLMSTHDMKIDYESRMKRLLGSIARMQEYWHTVQFENNYTDVKSHSNNFAKFKATEKREWVKEKIDLESLLGTIQTNLKTYQLRKYEPPAGLKIVDLERQWKDFLSEEANQSKLINTHMREIKESMRIAFADRANSFSKMLSTISNEITNLQGDWRDQLDHVEFLQEHLGPLEVELASVKVLYDNCFQAGIEENDYTMFSYEDLEHEFGITANIIANKIKYLENELLEREKRTLSKQELDGITKVFRHFEKKKSNMLNEVEFYAALASLGLVYDTEEGTALFHRAANSEEGVTYERFTEIVMEELEDRDSARQVLYAFCDVADGKSYVTSDDLLRSQVRPNIVKFLECNMNKHSEGLDYLTWIKQLLAEDKEIV", "notes": "396 residues in all; also called pTEV-SP-ROD-EF; source: E. coli BL21(DE3), purified (nickel chelating column, TEV cleavage, ion exchange when necessary); not shown: 10xHis, N-terminal, cleaved"}}, "key": {"[1]": {"target": "the molecule itself", "assay": "SEC; gel filtration on Superdex 200 10/300GL in 50 mM Tris-HCl, pH 7.6, 200 mM KCl (also Sephacryl S-400HR in 25 mM sodium phosphate, pH 7.6, 150 mM NaCl); elution compared with reference proteins; dimer formation judged from apparent size"}, "[2]": {"target": "the molecule itself", "assay": "SEC; gel filtration on Superdex 200 10/300GL in 50 mM Tris-HCl, pH 7.6, 200 mM KCl (also Sephacryl S-400HR in 25 mM sodium phosphate, pH 7.6, 150 mM NaCl); elution compared with reference proteins; dimer formation judged from apparent size", "remark": "listed apart in the source"}}, "note": "Read-outs that look alike come from different tables or passages of the source.", "data": [{"protein": "B1", "values": [{"measurement": "binding result", "setting": "[1]", "value": "binds"}]}, {"protein": "B2", "values": [{"measurement": "binding result", "setting": "[1]", "value": "binds"}]}, {"protein": "B3", "values": [{"measurement": "binding result", "setting": "[2]", "value": "binds"}]}, {"protein": "B4", "values": [{"measurement": "binding result", "setting": "[1]", "value": "binds"}]}]}
